The subject of series [1] is BAA2326 repressor (Shiga toxin-encoding bacteriophage BAA2326 (from STEC)). As to the kind of experiment: EMSA. The note with it: for binding signal: scale: fold Kd relative to separate OR1.
Series [2] shares this test system. As to the kind of experiment: DNaseI footprinting.

Data on four substances can be found in paper PMC5977221.

Values joined by “and” are separate entries in the source; they are usually repeats but may differ in a detail not shown here. Equal entries are not always repeated.

As usually defined, the Kd is the concentration at which binding is half-saturated.

Turning to “GCGAATTCACTAAAGCACTTGCATTTAATAACTGTGCGTAATGATATGCCATAATAACTAAGAAGCTTCC (double strand) [BAA2326 OR1 oligonucleotide]”, in series [1], the Kd was found to be 0.42 nM. In series [1], “GCGAATTCACTAAAGCACTTGCAATATCACCTTTGGTTATATGTAATGCCATAATAACTAAGAAGCTTCC (double strand) [BAA2326 OR3 oligonucleotide]” showed a binding signal of 2.5. Same read-out and setting: next, “GCGAATTCACTAAAGCACTTGCAATATGTAATGAAATATCTGCGGTGTTGACATTCCATAATAACTAAGAAGCTTCC (double strand) [BAA2326 OR2 oligonucleotide]”: 83.3.

With intact BAA2326 OR, wild type, the Kd in series [2] was 28.6 nM and 44 nM and 59.1 nM.
